Measured values published in doi:10.1101/2023.12.13.571598.

Target: P301S tauRD-mEOS3.2 (human)
Assay: FRET or BRET

percent FRET-positive cells (100 nM recombinant tau fibrils): 74%
Substance: P301S tauRD-mEOS3.2 (domain or fragment)
